Values of other authors in paper PMC4081073.

Target: EcoRI restriction endonuclease (Escherichia coli) (UniProt P00642)

For “EcoRI restriction endonuclease (from UniProt P00642)”, the Kd is listed as 0.1 µM.
